The target in the assay is recombinant human IP-10 (Peprotech) (human) (UniProt P02778). Kind of assay: cell-based or functional assay.
recombinant human IP-10 (Peprotech) (human), sequence (P02778 22-98 limits assumed): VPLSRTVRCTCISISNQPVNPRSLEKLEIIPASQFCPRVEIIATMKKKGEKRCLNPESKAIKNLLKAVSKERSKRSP

B1: CC21R3P5_C5 (scFv format) (scFv, part only; not given: scFv linker, part only)
scFv, part: QVQLVQSGGGVVQPGRSLRLSCAASGFTFSTYGMHWVRQAPGKGLEWVAVISYDGGTKYYADSVKGRFTISRDNSMKTLYLQMNSLRTEDTAVYYCAKDLGDLPPGLDYWGRGTMVTVSSCHEMICALLYSYNTHESIZEDSYELTQPPSVSVALGQTATITCGGSSIESKSVHWYQEKPGQAPVLVIYKDSNRPSVIPERFSGSNSGNTATLTIGRAQAGDEADYYCQVWDSSTGVVFGGGTKLTVL
For B1, the Calcium flux IC50 (nM); 10 nM hIP-10 came to 89 nM and the Chemotaxis IC50 (nM); 1 nM hIP-10 is 90 nM.

Values taken from US20130216549A1.
